Publication PMC3509953 (Journal of molecular biology, 2012)

B5: PRDC with the unpaired cysteine mutated to serine (C120S), bacterially produced (natural protein, mouse, UniProt O88273 22-168, looked up)
chain: RKNRPAGAIPSPYKDGSSNNSERWHHQIKEVLASSQEALVVTERKYLKSDWCKTQPLRQTVSEEGCRSRTILNRFCYGQCNSFYIPRHVKKEEDSFQSSAFCKPQRVTSVIVELECPGLDPPFRIKKIQKVKHCRCMSVNLSDSDKQ

Legend:
[1] = target: the molecule itself; test: MALDI-TOF mass spectrometry
SEC = target: the molecule itself; test: SEC
[2] = target: B5; test: SPR
AUC = target: the molecule itself; test: AUC
cross-linking = target: the molecule itself; test: cross-linking

B1: activin A (ligand, UniProt P08476 311-426, looked up)
chain: GLECDGKVNICCKKQFFVSFKDIGWNDWIIAPSGYHANYCEGECPSHIAGTSGSSLSFHSTVINHYRMRGHSPFANLKSCCVPTKLRPMSMLYYDDGQNIIKKDIQNMIVEECGCS
With B1 the “stoichiometry N” value [1] was 2.

B2: Protein related to DAN and Cerberus (PRDC), wild type, bacterially produced (natural protein, mouse, UniProt O88273 22-168, looked up)
chain: RKNRPAGAIPSPYKDGSSNNSERWHHQIKEVLASSQEALVVTERKYLKSDWCKTQPLRQTVSEEGCRSRTILNRFCYGQCNSFYIPRHVKKEEDSFQSCAFCKPQRVTSVIVELECPGLDPPFRIKKIQKVKHCRCMSVNLSDSDKQ
modifications: a single glutathione (by mass spectrometry; residue not stated)
With B2 the “stoichiometry N” value (SEC) was 2.

B3: BMP7 (ligand, UniProt P18075 293-431, looked up)
chain: STGSKQRSQNRSKTPKNQEALRMANVAENSSSDQRQACKKHELYVSFRDLGWQDWIIAPEGYAAYYCEGECAFPLNSYMNATNHAIVQTLVHFINPETVPKPCCAPTQLNAISVLYFDDSSNVILKKYRNMVVRACGCH
B3 gave a Kd [2] of 86.6 ± 3.7 nM.

B4: BMP2 (ligand, UniProt P12643 283-396, looked up)
chain: QAKHKQRKRLKSSCKRHPLYVDFSDVGWNDWIVAPPGYHAFYCHGECPFPLADHLNSTNHAIVQTLVNSVNSKIPKACCVPTELSAISMLYLDENEKVVLKNYQDMVVEGCGCR
With B4 the Kd [2] was 57.1 ± 7.8 nM.

With B5 the “stoichiometry N” value (AUC) was 2.

B6: BMP4 (ligand, UniProt P12644 293-408, looked up)
chain: SPKHHSQRARKKNKNCRRHSLYVDFSDVGWNDWIVAPPGYQAFYCHGDCPFPLADHLNSTNHAIVQTLVNSVNSSIPKACCVPTELSAISMLYLDEYDKVVLKNYQEMVVEGCGCR
B6 was tested, and the Kd [2] was 70.7 ± 2.6 nM.

B7: DAN (differential screening selected gene abberative in neuroblastoma) (natural protein, human)
chain: AAPPPINKLALFPDKSAWCEAKNITQIVGHSGCEAKSIQNRACLGQCFSYSVPNTFPQSTESLVHCDSCMPAQSMWEIVTLECPGHEEVPRVDKLVEKILHCSCQACGKEPSHEGLSVYVQGEDGPGSQPGTHPHPHPHPHPGGQTPEPEDPPGAPHTEEEGAEDLEVLFQ
With B7 the “stoichiometry N” value (cross-linking) was 2.
